Measured values from patent publication US20150079112A1 (SAMSUNG ELECTRONICS, published 2015).
Positions count from the first letter of the chain named.

Tests used:
Assay in all cases: ELISA, coated antibody 1000 nM, 250 ng FLAG-tagged mutant Ang2, anti-FLAG-HRP, OD450
[1] = target: T1, mutant Ang2 protein, I434 substituted with alanine, FLAG-tagged at its N-terminal (human, UniProt O15123 19-496, limits assumed)
T1 sequence: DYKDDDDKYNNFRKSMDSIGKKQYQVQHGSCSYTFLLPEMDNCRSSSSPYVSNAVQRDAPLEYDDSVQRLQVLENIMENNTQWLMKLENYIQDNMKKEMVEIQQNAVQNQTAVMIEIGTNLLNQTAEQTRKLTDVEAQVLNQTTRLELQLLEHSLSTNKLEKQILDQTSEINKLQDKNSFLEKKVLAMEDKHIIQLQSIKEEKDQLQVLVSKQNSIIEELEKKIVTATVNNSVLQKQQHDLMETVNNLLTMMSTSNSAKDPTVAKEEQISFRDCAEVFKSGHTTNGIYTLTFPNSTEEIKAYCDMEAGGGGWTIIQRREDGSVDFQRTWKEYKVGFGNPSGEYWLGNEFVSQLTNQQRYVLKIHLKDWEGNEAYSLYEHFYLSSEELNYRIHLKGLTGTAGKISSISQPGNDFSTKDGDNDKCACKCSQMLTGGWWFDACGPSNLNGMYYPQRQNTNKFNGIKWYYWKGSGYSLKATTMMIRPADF
Method: (§1) Each well of a 96-well MaxiSorp™ flat-bottom plate (Nunc) was coated with 50 ul (microliter) of 1000 nM antibody. Then, the plate was washed five times with 0.05% (v/v) Tween-20-containing PBS (PBST) and blocked with 1% (v/v) BSA-containing PBS at a room temperature for 2 hours. 250 ng of each mutant Ang2 protein obtained by substituting S417, Q418, P419, N421, I434, D448, A449, P452, Y460, N467, K468, or F469 residue of Ang2 protein tagged with a FLAG sequence ([…], Sigma) at its N-terminal with alanine was added to each well of the plate, which was then allowed to react at a room temperature for 2 hours.
(§2) The plate was washed five times with 0.05% (v/v) Tween-20 containing PBS, reacted with an anti-FLAG antibody (SIGMA) conjugated with HRP which was diluted in 1% (v/v) BSA-containing PBS at a ratio of 1:5,000 (v/v) at a room temperature for 1 hour, and washed five times with 0.1% (v/v) Tween-20-containing PBS.
(§3) Finally, 50 ul of TMB substrates (Cell signaling) was added to each well of the plate to induce color development at a room temperature for 3 min. and the reaction was ceased by the addition of 50 ul of Stop solution (Cell signaling) and then, OD450 values were measured on a plate reader (Molecular Devices). By comparing binding affinities with mutated Ang2 to those of unmutated Ang2, each epitope of Ang2 antibodies was identified. The thus obtained measurement results of the binding affinities (%) with mutant Ang2 against the binding affinity with the native Ang2 are shown in the following Table 8.

[2] = target: T2, mutant Ang2 protein, P452 substituted with alanine, FLAG-tagged at its N-terminal (human, UniProt O15123 19-496, limits assumed)
T2 sequence: T1 sequence with A424I, P442A
Method: as §1, §2, §3

[3] = target: T3, mutant Ang2 protein, F469 substituted with alanine, FLAG-tagged at its N-terminal (human, UniProt O15123 19-496, limits assumed)
T3 sequence: T1 sequence with A424I, F459A
Method: as §1, §2, §3

[4] = target: T4, mutant Ang2 protein, Q418 substituted with alanine, FLAG-tagged at its N-terminal (human, UniProt O15123 19-496, limits assumed)
T4 sequence: T1 sequence with Q408A, A424I
Method: as §1, §2, §3

B1: SAIT-ANG2-AB-m10D6 (antibody, V domains shown)
VH: DVQLQESGPGLVKPSQSLSLTCTVTGYSITSDYAWNWIRQFPGNKLEWMGYINYSGNTDYNPSLKSRSSITRDTSKNQFFLQLNSVTTGDTATYYCARGNFEGAMDYWGQGTSVTVSS
VL: SIVMTQTPKFLLVSAGDRVTITCKASQSVSNDVAWYQQKPGQSPKLLIYYASNRYPGVPDRFTGSGYGTDFTFTISTVQAEDLAVYFCQQDYSSPWTFGGGTKLEIK
notes: also called antibody 10D6; anti-Ang2 antibody (10D6)
binding affinity (%) with mutant Ang2 against the binding affinity with the native Ang2 [1]: 109%
binding affinity (%) with mutant Ang2 against the binding affinity with the native Ang2 [2]: 102%
binding affinity (%) with mutant Ang2 against the binding affinity with the native Ang2 [3]: 109%
binding affinity (%) with mutant Ang2 against the binding affinity with the native Ang2 [4]: 38.9%
